From PMC13722417 (2026)
Several values for one entry are separate records, joined by “and”; a condition that tells them apart may be missing. Identical values can stand only once.

B1: TIE1 21-760 (protein)
chain: AAVDLTLLANLRLTDPQRFFLTCVSGEAGAGRGSDAWGPPLLLEKDDRIVRTPPGPPLRLARNGSHQVTLRGFSKPSDLVGVFSCVGGAGARRTRVIYVHNSPGAHLLPDKVTHTVNKGDTAVLSARVHKEKQTDVIWKSNGSYFYTLDWHEAQDGRFLLQLPNVQPPSSGIYSATYLEASPLGSAFFRLIVRGCGAGRWGPGCTKECPGCLHGGVCHDHDGECVCPPGFTGTRCEQACREGRFGQSCQEQCPGISGCRGLTFCLPDPYGCSCGSGWRGSQCQEACAPGHFGADCRLQCQCQNGGTCDRFSGCVCPSGWHGVHCEKSDRIPQILNMASELEFNLETMPRINCAAAGNPFPVRGSIELRKPDGTVLLSTKAIVEPEKTTAEFEVPRLVLADSGFWECRVSTSGGQDSRRFKVNVKVPPVPLAAPRLLTKQSRQLVVSPLVSFSGDGPISTVRLHYRPQDSTMDWSTIVVDPSENVTLMNLRPKTGYSVRVQLSRPGEGGEGAWGPPTLMTTDCPEPLLQPWLEGWHVEGTDRLRVSWSLPLVPGPLVGDGFLLRLWDGTRGQERRENVSSPQARTALLTGLTPGTHYQLDVQLYHCTLLGPASPPAHVLLPPSGPPAPRHLHAQALSDSEIQLTWKHPEALPGPISKYVVEVQVAGGAGDPLWIDVDRPEETSTIIRGLNASTRYLFRMRASIQGLGDWSNTVEESTLGNGLQAEGPVQESRAAEEGLDQQ

Legend:
TIE1 21-760 = target: B1; assay: SPR
SVEP1 919-3571 [1] = target: SVEP1 919-3571 (Homo sapiens, UniProt Q4LDE5, ANG2 present); assay: ELISA
SVEP1 919-3571 [2] = target: SVEP1 919-3571 (Homo sapiens, UniProt Q4LDE5); assay: ELISA
SVEP1 919-3571 [3] = target: SVEP1 919-3571 (Homo sapiens, UniProt Q4LDE5, ANG1 present); assay: ELISA

Kd (TIE1 21-760)	Kd (SVEP1 919-3571 [1])	Kd (SVEP1 919-3571 [2])	Kd (SVEP1 919-3571 [3])	Binder
62.5 nM	–	–	–	SVEP1 2261-2890 (protein) PLDCGKPPPIQNGFMKGENFEVGSKVQFFCNEGYELVGDSSWTCQKSGKWNKKSNPKCMPAKCPEPPLLENQLVLKELTTEVGVVTFSCKEGHVLQGPSVLKCLPSQQWNDSFPVCKIVLCTPPPLISFGVPIPSSALHFGSTVKYSCVGGFFLRGNSTTLCQPDGTWSSPLPECVPVECPQPEEIPNGIIDVQGLAYLSTALYTCKPGFELVGNTTTLCGENGHWLGGKPTCKAIECLKPKEILNGKFSYTDLHYGQTVTYSCNRGFRLEGPSALTCLETGDWDVDAPSCNAIHCDSPQPIENGFVEGADYSYGAIIIYSCFPGFQVAGHAMQTCEESGWSSSIPTCMPIDCGLPPHIDFGDCTKLKDDQGYFEQEDDMMEVPYVTPHPPYHLGAVAKTWENTKESPATHSSNFLYGTMVSYTCNPGYELLGNPVLICQEDGTWNGSAPSCISIECDLPTAPENGFLRFTETSMGSAVQYSCKPGHILAGSDLRLCLENRKWSGASPRCEAISCKKPNPVMNGSIKGSNYTYLSTLYYECDPGYVLNGTERRTCQDDKNWDEDEPICIPVDCSSPPVSANGQVRGDEYTFQKEIEYTCNEGFLLEGARSRVCLANGSWSGATPDCVPVR
–	55.6 nM	189 nM and 147 nM	82.4 nM	B1
